The source of these data is patent US20240417469A1 (CONCEPT TO MEDICINE BIOTECH, published 2024).

Residue numbers refer to the chain shown, from its start.

The target of test [1] is T1, human CD3 on cells (human PBMC; Jurkat TCR/CD3 NFAT reporter cells) (human, UniProt P07766 23-207; P04234 22-171; P09693 23-182). Put plainly: cell-based or functional assay.
Test [2] deals with T2, recombinant CD3D&E protein (human CD3-his tag) (human, UniProt P04234 22-105; P07766 23-126, limits assumed).
T2 construct: Analyte in Biacore; also called CD3D&E-His; CD3d&ε-His
T2 sequence (P04234 22-105 limits assumed, chain 1 of 2): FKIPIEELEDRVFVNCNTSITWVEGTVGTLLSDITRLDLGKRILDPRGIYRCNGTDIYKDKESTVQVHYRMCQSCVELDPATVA
T2 sequence (P07766 23-126 limits assumed, chain 2 of 2): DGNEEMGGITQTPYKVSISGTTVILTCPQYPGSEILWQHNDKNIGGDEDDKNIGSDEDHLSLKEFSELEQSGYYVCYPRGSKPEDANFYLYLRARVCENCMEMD
Put plainly: SPR Biacore, Ab captured on Protein A.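 Also: humanized antibodies on a Protein A chip, human CD3-his analyte flowed over in serial dilutions for 3 min, dissociation tracked 120–360 s on a Biacore T200.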

The target of a further test is T3, human CD3 protein (human, UniProt P07766 23-126; P04234 22-105).
T3 construct: ELISA coating protein; also called Human CD3D & CD3E Heterodimer Protein
T3 sequence (P07766 23-126 limits assumed, chain 1 of 2): as the sequence (P07766 23-126 limits assumed, chain 2 of 2) above
T3 sequence (P04234 22-105 limits assumed, chain 2 of 2): as the sequence (P04234 22-105 limits assumed, chain 1 of 2) above
The experiment in a line: ELISA, plate-coated CD3.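 Also: binding to plate-immobilized human CD3 protein, bound antibody detected with peroxidase-labelled anti-human IgG and TMB, read as absorbance at 450 nm.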 For orientation: ELISA stands for enzyme-linked immunosorbent assay.

The target in test [3] is T1, human CD3 on cells (human PBMC; Jurkat …). The experiment in a line: cell-based or functional assay. This is another data set of the same source.

T1 sequence (P07766 23-207, chain 1 of 3): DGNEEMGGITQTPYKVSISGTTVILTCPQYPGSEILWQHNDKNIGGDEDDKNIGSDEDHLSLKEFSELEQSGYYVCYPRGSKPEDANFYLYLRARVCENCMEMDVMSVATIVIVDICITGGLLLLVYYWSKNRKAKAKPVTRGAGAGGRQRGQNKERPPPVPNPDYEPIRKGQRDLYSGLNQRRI
T1 sequence (P04234 22-171, chain 2 of 3): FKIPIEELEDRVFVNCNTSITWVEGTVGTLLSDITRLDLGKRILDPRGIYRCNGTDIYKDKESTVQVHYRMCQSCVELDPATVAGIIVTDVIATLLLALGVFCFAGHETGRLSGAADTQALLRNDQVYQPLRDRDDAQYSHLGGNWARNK
T1 sequence (P09693 23-182, chain 3 of 3): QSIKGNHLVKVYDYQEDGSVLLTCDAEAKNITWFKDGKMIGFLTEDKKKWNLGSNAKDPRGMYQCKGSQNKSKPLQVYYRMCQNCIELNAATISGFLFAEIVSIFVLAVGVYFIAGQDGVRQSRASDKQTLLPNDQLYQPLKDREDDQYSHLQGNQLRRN

B1: Hu153A6B1-9 (antibody, V domains shown)
VH: EVQLQESGPGLVKPSETLSLTCTVSGGSISSYNIHWVRQPPGKGLEWMGRIRYNGDTSYNSALKSRLTISRDTSKNQFSLKLSSVTAADTAVYYCARGPYGGSREPLFDYWGQGTMVTVSS
VL: DIQMTQSPSSLSASVGDRVTITCKTSQNINKYLNWFQQKPGKAPKLLIYTTNNLQTGIPSRFSGSGSGTDFTLTISSLQPEDFATYYCLQHGSGYTFGQGTKLEIK
notes: humanized mAb
For the molecule B1, in test [1], the “% of SP34” value was 73.6% and the Emax came to 4310. For the same molecule, in test [2], the Kd was found to be 61.7 nM, the dissociation rate constant (koff) was determined as 0.0344 s⁻¹ and the kon stood at 558000 M⁻¹ s⁻¹. Moreover, a half-maximal effect with human CD3 protein (EC50) was put at 3.35 ng/mL. For the same molecule, in test [3], the “CD3-NFAT Activity by CD3 mAb” value is > 50 % SP34.

B2: Hu153A6B1-10 (antibody, V domains shown)
VH: B1 VH with A96T
VL: B1 VL
notes: humanized mAb
With B2, in test [1], the “% of SP34” value worked out at 73.9% and the Emax came to 4080. Also, in test [2], the Kd worked out at 70.5 nM, the dissociation rate constant (koff) worked out at 0.0568 s⁻¹ and the on-rate (kon) turned out to be 806000 M⁻¹ s⁻¹. The molecule also registered an EC50 with human CD3 protein of 3.44 ng/mL. Also, the “CD3-NFAT Activity by CD3 mAb” value in test [3] was > 50 % SP34.

B3: Hu153A6B1-5 (antibody, V domains shown)
VH: B1 VH with G27F, F78V, A96T
VL: B1 VL with F36Y, I58V
notes: humanized mAb
Take B3: in test [1], the “% of SP34” value came out at 78.5% and the Emax came out at 4600. Also, in test [2], the Kd is 19.4 nM, the off-rate (koff) is 0.00177 s⁻¹ and the kon was determined as 91300 M⁻¹ s⁻¹. The molecule also showed an EC50 in the test with human CD3 protein of 3.23 ng/mL. The “CD3-NFAT Activity by CD3 mAb” value in test [3] is > 50 % SP34.

B4: Hu153A6B1-1 (antibody, V domains shown)
VH: B1 VH with V37I, M48I, L67V, R71V
VL: B1 VL with F36Y, I58V
notes: humanized mAb
Take B4: in test [1], the “% of SP34” value was 19.8% and the Emax amounted to 1160. In test [2], the Kd was found to be 8.81 nM, the koff came to 0.00391 s⁻¹ and the kon was 444000 M⁻¹ s⁻¹. It took 16.3 ng/mL to reach a half-maximal effect with human CD3 protein (EC50). Also, in test [3], the “CD3-NFAT Activity by CD3 mAb” value was ≤ 50 % SP34.

B5: Hu153A6B1-8 (antibody, V domains shown)
VH: B1 VH with M48I, L67V
VL: B1 VL
notes: humanized mAb
For B5, in test [1], the “% of SP34” value stood at 70.5% and the Emax came out at 4130. Further, in test [2], the Kd was 49 nM, the koff stood at 0.0396 s⁻¹ and the kon worked out at 808000 M⁻¹ s⁻¹. The molecule also registered an EC50 with human CD3 protein of 2.95 ng/mL. Also, the “CD3-NFAT Activity by CD3 mAb” value in test [3] is > 50 % SP34.

B6: Hu153A6B1-11 (antibody, V domains shown)
VH: B1 VH with G27F, F78V, A96T
VL: B1 VL
notes: humanized mAb
In the case of B6, in test [1], the “% of SP34” value turned out to be 81% and the Emax was 4470. Also, in test [2], the Kd came out at 11.4 nM, the koff was found to be 0.00106 s⁻¹ and the kon was determined as 93000 M⁻¹ s⁻¹. In addition, in the test with human CD3 protein, the 50% effective concentration (EC50) came out at 3.05 ng/mL. For the same molecule, in test [3], the “CD3-NFAT Activity by CD3 mAb” value was > 50 % SP34.

B7: Hu153A6B1-13 (antibody, V domains shown)
VH: B1 VH with V37I, M48I, L67V, R71V
VL: B1 VL with Y87F
notes: humanized mAb
For B7, in test [1], the “% of SP34” value is 23.2% and the Emax stood at 1280. In addition, in test [2], the Kd was determined as 29.6 nM, the koff was found to be 0.0103 s⁻¹ and the kon came out at 349000 M⁻¹ s⁻¹. This molecule also showed an EC50 with human CD3 protein of 6.38 ng/mL. In test [3], the “CD3-NFAT Activity by CD3 mAb” value was ≤ 50 % SP34.

B8: Hu153A6B1-7 (antibody, V domains shown)
VH: B1 VH with V37I, M48I, L67V, R71V
VL: B1 VL
notes: humanized mAb
Turning to B8, in test [1], the “% of SP34” value stood at 26.9% and the Emax is 1580. Moreover, in test [2], the dissociation constant (Kd) is 45.2 nM, the koff came to 0.0142 s⁻¹ and the kon stood at 314000 M⁻¹ s⁻¹. For the same molecule, the response with human CD3 protein was half-maximal at 6.78 ng/mL (EC50). In addition, the “CD3-NFAT Activity by CD3 mAb” value in test [3] was ≤ 50 % SP34.

B9: Hu192A7B9-24 (antibody, V domains shown)
VH: EVQLQESGPGLVKPSETLSLTCTVSGFSLTSYNVHWVRQPPGKGLEWMGRMRYNGDTSYNSALKSRLTISRDTSKNQVSLKLSSVTAADTAVYYCTRGPRGGYYSALFDYWGQGTMVTVSS
VL: DIQMTQSPSSLSASVGDRVTITCKASQNINRYLNWYQQKPGKAPKVLISIANSLQTGIPSRFSGSGSGTDFTLTISSLQPEDFATYFCLQHNSWYTFGQGTKLEIK
notes: humanized mAb
As for B9, in test [2], the Kd turned out to be 9.21 nM, the koff stood at 0.000594 s⁻¹ and the kon was 64500 M⁻¹ s⁻¹. In addition, the EC50 with human CD3 protein amounted to 20.2 ng/mL. Besides, the “CD3-NFAT Activity by CD3 mAb” value in test [3] was > 50 % SP34.

B10: Hu153A6B1-6 (antibody, V domains shown)
VH: B1 VH with G27F, I29L, S30T, F78V, A96T
VL: B1 VL with F36Y, I58V
notes: humanized mAb
On to B10, for which, in test [1], the “% of SP34” value is 71.9% and the Emax turned out to be 4210. Besides, in test [2], the Kd came out at 21.1 nM, the koff is 0.00181 s⁻¹ and the kon was determined as 85800 M⁻¹ s⁻¹. The molecule further yielded an EC50 in the test with human CD3 protein of 2.99 ng/mL. The “CD3-NFAT Activity by CD3 mAb” value in test [3] is > 50 % SP34.

B11: Hu153A6B1-2 (antibody, V domains shown)
VH: B1 VH with M48I, L67V
VL: B1 VL with F36Y, I58V
notes: humanized mAb
Turning to B11, in test [1], the “% of SP34” value amounted to 42.6% and the Emax amounted to 2500. In test [2], the Kd was found to be 50 nM, the koff amounted to 0.0201 s⁻¹ and the kon came to 402000 M⁻¹ s⁻¹. In the test with human CD3 protein, this molecule had a half-maximal effective concentration (EC50) of 3.39 ng/mL. Further, in test [3], the “CD3-NFAT Activity by CD3 mAb” value is ≤ 50 % SP34.

B12: Hu153A6B1-12 (antibody, V domains shown)
VH: B1 VH with G27F, I29L, S30T, F78V, A96T
VL: B1 VL
notes: humanized mAb
On to B12, for which, in test [1], the “% of SP34” value came out at 87.5% and the Emax worked out at 4830. In test [2], the Kd turned out to be 13.5 nM, the koff amounted to 0.00107 s⁻¹ and the kon stood at 79400 M⁻¹ s⁻¹. For the same molecule, the EC50 in the test with human CD3 protein worked out at 2.69 ng/mL. Moreover, in test [3], the “CD3-NFAT Activity by CD3 mAb” value is > 50 % SP34.

B13: Hu153A6B1-4 (antibody, V domains shown)
VH: B1 VH with A96T
VL: B1 VL with F36Y, I58V
notes: humanized mAb
In the case of B13, in test [1], the “% of SP34” value came out at 44.1% and the Emax came out at 2580. For the same molecule, in test [2], the Kd came out at 58.5 nM, the koff is 0.0195 s⁻¹ and the kon stood at 334000 M⁻¹ s⁻¹. In the test with human CD3 protein, this molecule registered an EC50 of 3.72 ng/mL. For the same molecule, the “CD3-NFAT Activity by CD3 mAb” value in test [3] was ≤ 50 % SP34.

B14: Hu192A7B9-23 (antibody, V domains shown)
VH: B9 VH with L29I, T30S
VL: B9 VL
notes: humanized mAb
Turning to B14, in test [2], the Kd was 12.3 nM, the koff is 0.000862 s⁻¹ and the kon stood at 70200 M⁻¹ s⁻¹. The molecule also showed an EC50 with human CD3 protein of 15.8 ng/mL. Moreover, the “CD3-NFAT Activity by CD3 mAb” value in test [3] was > 50 % SP34.

B15: Hu153A6B1-3 (antibody, V domains shown)
VH: B1 VH
VL: B1 VL with F36Y, I58V
notes: humanized mAb
As for B15, in test [1], the “% of SP34” value was determined as 45.5% and the Emax worked out at 2660. Further, in test [2], the Kd was 59.5 nM, the koff worked out at 0.0241 s⁻¹ and the kon was 406000 M⁻¹ s⁻¹. In addition, a half-maximal response in the test with human CD3 protein (EC50) required 3.87 ng/mL. For the same molecule, the “CD3-NFAT Activity by CD3 mAb” value in test [3] was ≤ 50 % SP34.

Usually Kd stands for the equilibrium constant for the complex coming apart. As usually defined, the koff is a measure of how fast the partners let go of each other. What is called kon is the second-order rate constant of association. One may read the EC50 as the concentration giving half of the maximal effect. A lower EC50 goes with a more potent agent.
